The target of test [1] is Hcp from Acinetobacter baumannii AB0057, C-terminal His-tagged (Acinetobacter baumannii strain AB0057). Kind of test: crystal structure; X-ray, 1.55 Å, space group P6; crystals from 2.0 M ammonium sulfate, 0.1 M Hepes pH 7.5, 4°C; hexamer made by the 6-fold crystallographic symmetry; interfaces analysed with PISA.
Test [2] has as its target Hcp from Acinetobacter baumannii AB0057, tag-free (Acinetobacter baumannii strain AB0057). Kind of test: AUC; sedimentation equilibrium, 20°C, Hcp at 1.0 and 2.5 mg/ml, 20 mM Tris-HCl pH 7.5, 200 mM NaCl, 0.2 mM DTT, 2% glycerol.
The target is the same in test [3]. The experiment in a line: negative-staining electron microscopy; Hcp at 0.02 mg/ml in 20 mM Tris-HCl pH 7.5, 200 mM NaCl, 2 mM DTT, stained with 1% uranyl formate; reference-free 2D classification.

For the substance “Hcp from Acinetobacter baumannii AB0057, C-terminal His-tagged (natural protein)”, the stoichiometry N (as a rule, a count of units in the complex or per binding partner) in test [1] turned out to be 6.
On to “Hcp from Acinetobacter baumannii AB0057, tag-free (natural protein)”, for which the stoichiometry N in test [2] and in test [3] was 6 in each case.

The record behind these values is publication PMC4469607.
